Consider two molecules from article doi:10.1101/2024.04.24.590854 (bioRxiv, 2024).

This assay concerns the target reconstituted XPO1:RanGTP nuclear export receptor complex (human | yeast (ScRan), UniProt O14980 1-1071; P32835 1-179, Q71L). Nature of the assay: fluorescence polarisation. (In fluorescence polarisation assays a small probe gives low polarisation when free and higher when bound to something large.)

As to {5(6)‑carboxyfluorescein}-GLEGDLLEHISLTLSVSGLGA-NH2 [POU4F3 P125L(114-134) peptide], the binding result is reported as “binds”.
Usually Kd stands for the equilibrium constant for the complex coming apart. A high value points to weaker binding. Molecule {5(6)‑carboxyfluorescein}-SPLDNMIRRLSLAERAQGPR-NH2 [ETV6 P214L(203-222) peptide] gave a Kd of 261 nM.
